Read-outs that look alike come from different tables or passages of the source.
Columns and labels:
[1] = target: T1, hCXCR4Rho1D4 (full-length human CXCR4 receptor with C-terminal Rho1D4 tag) (human, UniProt P61072 6-352 (Pan troglodytes entry)); assay: cell-based or functional assay
[2] = target: T1, hCXCR4Rho1D4 (full-length human CXCR4 …); assay: cell-based or functional assay; remark: listed apart in the source
[3] = target: T1, hCXCR4Rho1D4 (full-length human CXCR4 …); assay: control Nanobody co-expressed with hCXCR4Rho1D4 in P. pastoris; receptor level read by anti-Rho1D4 immunoblot
Text: Equal amounts of total membrane protein (determined by a BCA assay) of induced P. pastoris GS115 clones, expressing only the human CXCR4 receptor, or in combination with a anti-hCXCR4 Nanobody (NbCA4142), or in combination with the negative control Nanobody (NbCA4910), were run on a 12% SDS-PAGE gel and blotted on a nitrocellulose membrane. The blot was developed with a primary mouse anti-Rho1D4 monoclonal antibody and a secondary Dylight (800 nm) goat anti-mouse IgG on an LI-COR odyssey system. For the hCXCR4-specific Nb co-expressing clone we detect more of the anti-Rho1D4 immunoreactive membrane protein band compared to the GS115hCXCR4 clone without Nb co-expression. […] Exact quantification has been calculated by the Odyssey software by measuring relative fluorescent signals (Table 4). It can, thus, be concluded that the increase in receptor expression can be attributed to the Nanobody-specific interaction with the receptor.
Protein samples were analyzed by SDS-poly-acrylamide gel electrophoresis, according to the Laemmli (Laemmli et al., 1970, Nature, 227:680) or the Tricine method (Schagger et al., 2006, Nat. Protoc. 1:16-22). Before loading on gel, the samples were mixed with 5×Laemmli (60 mM Tris-HCl pH 6,8; 2% SDS, 10% glycerol, 5% β-ME; 0.01% bromophenol blue) and heated for 10 minutes at 95° C. (only the ECM samples, not the membrane protein preparations). […]

T1 sequence (P61072 other isoform, or with tags, fused parts or gaps limits assumed): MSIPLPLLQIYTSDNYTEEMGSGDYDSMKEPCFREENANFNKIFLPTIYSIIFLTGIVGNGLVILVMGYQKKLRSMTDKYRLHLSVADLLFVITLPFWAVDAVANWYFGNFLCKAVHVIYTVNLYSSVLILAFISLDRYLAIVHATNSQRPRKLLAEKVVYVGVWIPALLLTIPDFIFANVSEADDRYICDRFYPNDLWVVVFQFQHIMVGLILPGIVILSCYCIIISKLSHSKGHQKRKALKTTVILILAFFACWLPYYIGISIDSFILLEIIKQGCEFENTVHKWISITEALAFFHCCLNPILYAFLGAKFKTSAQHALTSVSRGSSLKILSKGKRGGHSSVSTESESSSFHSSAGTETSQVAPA

B1: Nanobody CA4500 (VHH)
VHH: QVQLQESGGGLVQAGGSLRLSCAASGSTSGIIAMGWYRQAPGKQRELVARISSGSSTNYADSVKGRFTVSRDNAKNTVYLQMNSLKPEDTAVYYCNAVRRGYRNDYNSWGQGTQVTVSS
Question: How did the “Factor improvement (relative hCXCR4 expression, anti-Rho1D4 immunoblot fluorescence)” value [1] turn out when B1 was run?
Answer: Its value is 1.3 fold.

B2: Nanobody CA4142 (VHH)
VHH: QVQLQESGGGLVRTGGSLRLSCAGSGSFFSINPMGWYRQAPGQQRELVATITGSGSTNYADSVKGRFTISRDNAKNTLYLQMNSLKPEDTAVYYCNAGYFDRIGRRYDRWGQGTQVTVSS
Question: With B2 as the binder, how does the “Factor improvement (relative hCXCR4 expression, anti-Rho1D4 immunoblot fluorescence)” value [2] read?
Answer: The value was 1.9 fold.

Question: What about the “Factor improvement (relative hCXCR4 expression, anti-Rho1D4 immunoblot fluorescence)” value [1] of the same binder?
Answer: The value was 2.6 fold.

B3: Nanobody CA4140 (VHH)
VHH: QVQLQESGGGLVQPGGSLRLSCAASGSIFSINAMGWYRQAPGKQRELVAAITSGGSTNYADSVKGRFTISRDNAENTVYLQMNNLKPEDTAVYSCNAEGTSGSSRYRRRYEYWGKGTQVTVSS
Question: With B3 as the binder, how does the “Factor improvement (relative hCXCR4 expression, anti-Rho1D4 immunoblot fluorescence)” value [1] read?
Answer: Its value is 2.8 fold.

B4: Nanobody CA4143 (VHH)
VHH: QVQLQESGGGLVQPGGSLRLSCAASGFTFSSYAMSWVRQAPGKGLEWVSTINSGGRSANYADSVKGRLTISRDNAKNTLHLQMNSLKPEDTALYYCARPRSVSRNYVPLGYDYLGQGTQVTVSS
Question: For B4, which “Factor improvement (relative hCXCR4 expression, anti-Rho1D4 immunoblot fluorescence)” value [1] is on record?
Answer: The value was 3 fold.

B5: Nanobody CA4910 (VHH)
VHH: QVQLVESGGGLVQPGGSLRLSCAASGSFRSIVSMAWYRQAPGKQRELVASSNSGGSTNYADSVKGRFTISRDNAKNTVYLQMNSLKPEDTAVYWCNVQNRLPGFDAFSGRSIAETYWGQGTQVTVSS
notes: It was co-expressed in P. pastoris as a control; also called NbCA4910; Nb4910
Question: With B5 as the binder, how does the “Factor improvement (relative hCXCR4 expression, anti-Rho1D4 immunoblot fluorescence), clone 1” value [2] read?
Answer: Its value is 0.4 fold.

Question: And the “Factor improvement (relative hCXCR4 expression, anti-Rho1D4 immunoblot fluorescence), clone 2” value [2]?
Answer: Its value is 1.1 fold.

Question: And the “Factor improvement (relative hCXCR4 expression, anti-Rho1D4 immunoblot fluorescence), clone 3” value [2]?
Answer: The value was 1.2 fold.

Question: Does B5 bind [3]?
Answer: Result: no binding

— patent publication US20230071321A1 (VIB VZW, published 2023)
